Reference: patent US20120213844A1
Positions of bridges follow the written chain, without caps; N, C: chain ends. No end group written: not given here. PEG = not defined here

Target: human EGFR on tumor cells (human) (UniProt P00533)
Assay: flow cytometry on A431 cells preincubated with 2 ug EGF, 2 uM bio-P190:avidin complex, 4 C

Binder DPCTWEVWGRECLQ-{PEG-biotin} (disulfide 3-12 (inferred); reading uncertain) [Biotinylated-PEGylated P190] has a staining, fold over background of 20 fold.
